Experimental findings from patent publication US6596687B1, “Cell adhesion inhibitors” (Biogen, Inc., priority 1995, dated 2003) are described below.

Experiment [1] concerns the target T1, VLA-4 (alpha4beta1 integrin) (UniProt P13612 34-1032; P05556 21-798, limits assumed).
T1 construct: whole, on cells; also called very late antigen-4; CD49d/CD29
Nature of the experiment: Ramos/BSA-CS1 adhesion inhibition. Here is the method:
Following labelling, the cells were washed twice in assay buffer (24 mM TRIS, 137 mM NaCl, 2.7 mM KCl, pH 7.4, containing 0.1 BSA and 2mM glucose) to remove any cations originating from the culture medium. The cells were then resuspended in assay buffer to 4 ×10^6 cells/mL and 2 mM MnCl_2 was added to upregulate VLA4 on the surface of the cells.
Immediately prior to running the assay, we removed the BSA blocking solution from the 96-well plates and washed the wells with 100 μL of assay buffer. We then added to each well 25 μL of test cell adhesion inhibitory compound at 2×the final concentration and 25 μL of the labelled Ramos cells. […] Each concentration of compound was tested in triplicate. The compound and cells are allowed to incubate for 30 minutes at room temperature.
Percent binding is calculated by the formula: […]

The target in experiment [2] is VLA-4 (alpha4beta1 integrin) (UniProt P13612). In words: Ramos/BSA-CS1 adhesion inhibition.

Square brackets hold non-standard residues; d marks the D form. 2‑MPUB = not defined here

Sequence of VLA-4 (alpha4beta1 integrin) (UniProt P13612) (P13612 34-1032 limits assumed, chain 1 of 2): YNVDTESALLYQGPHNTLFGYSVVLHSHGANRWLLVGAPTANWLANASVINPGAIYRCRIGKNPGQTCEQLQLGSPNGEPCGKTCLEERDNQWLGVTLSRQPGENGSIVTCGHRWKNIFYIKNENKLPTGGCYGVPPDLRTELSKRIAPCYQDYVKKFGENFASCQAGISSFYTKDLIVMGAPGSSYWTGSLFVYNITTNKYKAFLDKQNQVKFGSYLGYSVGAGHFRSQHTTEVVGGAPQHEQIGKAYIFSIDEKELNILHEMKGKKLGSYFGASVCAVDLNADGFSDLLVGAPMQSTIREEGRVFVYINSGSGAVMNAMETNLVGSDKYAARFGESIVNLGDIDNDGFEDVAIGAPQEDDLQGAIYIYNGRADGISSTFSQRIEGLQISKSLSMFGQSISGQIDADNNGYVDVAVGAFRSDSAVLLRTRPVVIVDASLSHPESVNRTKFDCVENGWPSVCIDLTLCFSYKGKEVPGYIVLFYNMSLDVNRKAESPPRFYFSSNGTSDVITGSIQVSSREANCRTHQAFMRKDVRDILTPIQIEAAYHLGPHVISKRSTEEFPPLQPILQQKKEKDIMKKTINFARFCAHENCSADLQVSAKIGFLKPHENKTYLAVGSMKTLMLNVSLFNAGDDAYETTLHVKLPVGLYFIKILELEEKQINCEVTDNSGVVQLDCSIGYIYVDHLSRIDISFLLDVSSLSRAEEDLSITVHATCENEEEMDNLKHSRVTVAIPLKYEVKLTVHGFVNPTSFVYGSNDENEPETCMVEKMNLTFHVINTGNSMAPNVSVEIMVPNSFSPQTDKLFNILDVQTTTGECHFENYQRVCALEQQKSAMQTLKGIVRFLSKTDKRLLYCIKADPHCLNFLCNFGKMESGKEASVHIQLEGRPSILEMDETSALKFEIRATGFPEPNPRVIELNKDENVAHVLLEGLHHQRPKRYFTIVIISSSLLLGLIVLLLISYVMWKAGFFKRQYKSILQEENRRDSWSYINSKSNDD
Sequence of VLA-4 (alpha4beta1 integrin) (UniProt P13612) (P05556 21-798 limits assumed, chain 2 of 2, further chain): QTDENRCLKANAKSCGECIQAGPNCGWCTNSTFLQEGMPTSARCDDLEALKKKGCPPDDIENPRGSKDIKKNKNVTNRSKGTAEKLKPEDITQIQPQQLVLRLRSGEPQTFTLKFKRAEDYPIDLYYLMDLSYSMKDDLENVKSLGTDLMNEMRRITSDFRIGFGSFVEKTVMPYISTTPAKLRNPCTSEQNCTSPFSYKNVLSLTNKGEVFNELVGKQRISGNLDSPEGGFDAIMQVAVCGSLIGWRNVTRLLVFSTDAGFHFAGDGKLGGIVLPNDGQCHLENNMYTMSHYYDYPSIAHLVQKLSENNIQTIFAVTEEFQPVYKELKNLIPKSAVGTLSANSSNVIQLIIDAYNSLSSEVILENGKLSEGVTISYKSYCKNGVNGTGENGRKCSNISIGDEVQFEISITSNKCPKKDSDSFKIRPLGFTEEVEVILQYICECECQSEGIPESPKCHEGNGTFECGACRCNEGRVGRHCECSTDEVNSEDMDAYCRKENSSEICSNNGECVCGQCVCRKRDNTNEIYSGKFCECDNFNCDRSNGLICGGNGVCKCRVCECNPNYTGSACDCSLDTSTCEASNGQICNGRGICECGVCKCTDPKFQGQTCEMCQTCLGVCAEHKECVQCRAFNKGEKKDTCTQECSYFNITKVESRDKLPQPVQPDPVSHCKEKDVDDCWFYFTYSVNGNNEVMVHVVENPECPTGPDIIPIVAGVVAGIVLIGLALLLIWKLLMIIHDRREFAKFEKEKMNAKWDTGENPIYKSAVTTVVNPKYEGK
T1 sequence (P13612 34-1032 limits assumed, chain 1 of 2): as the sequence (P13612 34-1032 limits assumed, chain 1 of 2) above
T1 sequence (P05556 21-798 limits assumed, chain 2 of 2): as the sequence (P05556 21-798 limits assumed, chain 2 of 2, further chain) above

B1: Compound 341 (peptide)
peptide: LPVD
HELM: PEPTIDE1{[Cc1ccccc1NC(=O)Nc1ccc(CC(=O)[*:2])cc1].L.P.V.D}$$$$V2.0
SMILES: Cc1ccccc1NC(=O)Nc1ccc(CC(=O)N[C@@H](CC(C)C)C(=O)N2CCC[C@H]2C(=O)N[C@H](C(=O)N[C@@H](CC(=O)O)C(=O)O)C(C)C)cc1
With B1, in experiment [1], the half-inhibitory concentration (IC50) was over 10 µM.
As to H-[dP][dV][dD][dL]-{2‑MPUB} (reading uncertain) [Compound 343], the IC50 in experiment [2] was over 10 µM.
